In patent US20250333486A1, “Anti-HSP90 alpha antibody and uses thereof” (NATIONAL HEALTH RESEARCH INSTITUTES, priority 2021, published 2025):
Entries after “also recorded” stand apart in the source; their conditions may differ.

Experiments:
[1] = test system: PANC-1 cells; assay: Cell spheroid-forming assay, rHSP90α-induced PANC-1 spheroids; format: cell-based, human; conditions: 15 μg/ml rHSP90α plus 10 μg/ml antibody
Description: (§1) One thousand cancer cells were seeded onto each well of 24-well plates pre-coated with a 4-mm thick layer of 0.5% agarose. After incubation 24 h with serum-free medium at 37° C. plus a 5% CO2 humidified atmosphere, cells were added with PBS or 15 μg/ml of rHSP90α in the absence or presence of 10 μg/ml of control IgG or the tested anti-HSP90α antibody. The incubation was kept for 10-14 days with supplements of some fresh serum-free medium every 3 days. Finally, the cell spheroids characterized by tight, non-adherent, and >100 μm in diameter were photographed and counted under an Olympus IX 71 inverted microscope (Center Valley, PA, USA). The spheroid formation % was calculated by the formula: (number of cell spheroids/1000)×100%.

[2] = test system: ARPE-19 retinal pigmented epithelial cells; assay: Retinal cell toxicity assay (MTS); format: cell-based, human; conditions: 72 h, up to 594.3 nM (100 μg/ml)
Description: ARPE-19 cells were seeded onto 96-well plates at a density of 4000 cells per well, and then treated in triplicate with various concentrations of 17-AAG or anti-HSP90α antibody HH01 for 72 h. The 3-(4,5-dimethylthiazol-2-yl)-5-(3-carboxymethoxyphenyl)-2-(4-sulfophenyl)-2H-tetrazolium (MTS; Sigma-Aldrich) assay was employed and OD490 was measured to evaluate cell viability upon each treatment.

[3] = test system: SW620 and PANC-1 cells; assay: Transwell invasion assay, rHSP90α-induced cancer cell invasion; format: cell-based, human; conditions: conclusion statement
Description: In a 37° C. and 5% CO2 humidified incubator, cancer cells were subjected to serum starvation in 0.5% FBS-containing medium for 16 h, and then added with PBS or 15 μg/ml of rHSP90α in the absence or presence of 10 μg/ml of control IgG or the tested anti-HSP90α antibody. After another 24 h, the treated cells were harvested as aliquots (1×10^5 cells per aliquot) in 0.5% FBS-containing culture medium, and then each aliquot was seeded into a top chamber of Transwell inserts pre-coated with 5-fold diluted Matrigel (BD Biosciences). Cells were allowed 16 h to invade through the Matrigel toward the bottom chambers containing culture medium plus 10% FBS. The filters of the Transwell inserts were then fixed and stained with Giemsa. Invasive cells on the lower side of filters were photographed using the Axiovert S100/AxioCam HR microscope system (Carl Zeiss, Oberkochen, Germany) and further quantified by the Image-Pro Plus software (Media Cybernetics, Inc., Silver Spring, MD, USA).

[4] = Solubility of antibody; format: physicochemical
[5] = test system: K-Ras^G12D-induced PDAC in LSL-KrasG12D/Pdx1-Cre mice; assay: Therapeutic efficacy in K-Ras^G12D-induced desmoplastic mouse PDAC model; format: in vivo
Description: Mouse experiments were performed with the permission of the Institutional Animal Care and Use Committee of National Health Research Institutes (NHRI-IACUC-106031-A, 109022-M2-S02, and 109196-A). To establish a desmoplastic tumor transplant model, C57BL/6 mice at 12 weeks of age were subcutaneously inoculated with a mix of Panc 02 cells and EndoMT-derived CAFs (i.e. OPN-treated 3B-11 cells). See Fan C S, Chen L L, Hsu T A, et al. Endothelial-mesenchymal transition harnesses HSP90α-secreting M2-macrophages to exacerbate pancreatic ductal adenocarcinoma. J Hematol Oncol 2019;12:138; and Chua K V, Fan C S, Chen L L, Chen C C, Hsieh S C, Huang T S. Octyl gallate induces pancreatic ductal adenocarcinoma cell apoptosis and suppresses endothelial-mesenchymal transition-promoted M2-macrophages, HSP90α secretion, and tumor growth. Cells 2020;9(1):91. Sizes of developing tumors were superficially measured with a Vernier caliper, and tumor volumes were calculated with the formula ½×length×width^2. Real tumors were weighed when mice were sacrificed. To establish a desmoplastic tumor transplant model in humanized mice, NOD-SCID IL2R^null (ASID) mice transplanted with human hematopoietic stem cells (hHSC) were subcutaneously inoculated with a mix of PANC-1 cells and OPN-treated HUVECs. The employed hHSC-transplanted ASID mice were produced from the National Laboratory Animal Center (Taipei, Taiwan) and all contained human CD45^+ cell levels more than 38% of total lymphocytes. To establish an M2-macrophage-exacerbated mouse PDAC model, C57BL/6 mice were subcutaneously inoculated with a mix of Panc 02 cells and rHSP90α-treated BMDMs. Additionally, LSL-KrasG12D/Pdx1-Cre transgenic mice were adopted as a spontaneously PDAC-developing mouse model to evaluate the therapeutic efficacy of HH01 antibody. LSL-KrasG12D and Pdx1-Cre breeder mice were obtained from the Mouse Models of Human Cancers Consortium Repository of the National Cancer Institute (Frederick, Maryland, USA). LSL-KrasG12D mice were crossed with Pdx1-Cre mice to generate LSL-KrasG12D/Pdx1-Cre mice.
For assaying the HSP90α-binding activities of the prepared antibodies, 96-well plates were coated with 12.5 ng/ml of rHSP90α in the capture buffer (BioLegend, San Diego, CA, USA) by overnight incubation at 4° C. The coated plates were washed twice with PBST and then blocked with PBST plus 3% bovine serum albumin (BSA). The prepared antibodies were applied and incubated 2 h at room temperature. After three washes with PBST, horseradish peroxidase-conjugated secondary antibody was added and incubated at 37° C. for another 1 h. After three washes, 0.3 mg/ml of 3,3′,5,5′-tetramethylbenzidine in 0.015% H2O2 was added into each well and incubated in the dark at room temperature for 10 min. The reactions were stopped by the addition of 0.5 M H2SO4, and OD450 values were measured by an Infinite M200 microplate reader (TECAN, Männedorf, Switzerland). Additionally, the immunoglobulin (IgG) isotype characterization of anti-HSP90α antibodies was performed by using the Mouse Ig Isotyping ELISA Ready-Set-Go!™ Kit (eBioscience™, Thermo Fisher Scientific, Waltham, MA, USA). The ELISA protocol was also used to assay the secreted HSP90α levels of mouse serum samples as described previously. See Chen J S, Hsu Y M, Chen C C, Chen L L, Lee C C, Huang T S. Secreted heat shock protein 90α induces colorectal cancer cell invasion through CD91/LRP-1 and NF-κB-mediated integrin αV expression. J Biol Chem 2010;285(33):25458-66.
Mouse paraffin-embedded tissue sections were deparaffinized by xylene and rehydrated by a series of ethanol dilutions. Masson trichrome staining was performed using a Trichrome Stain Kit (ScyTek Laboratories Inc., Utah, USA) according to the manufacturer's protocol. The stained sections were dehydrated in graded ethanol solutions and xylene, and finally mounted with mounting solution overnight in the dark at room temperature. […]

[6] = test system: SW620, PANC-1, and Panc 02 cells; assay: Cell spheroid-forming assay, rHSP90α-induced gain-of-stemness; format: cell-based, human and mouse; conditions: conclusion statement
Description: as §1

B1: HH01: humanized anti-HSP90α IgG1 antibody, mutant of Clone-2-chimera; VH SEQ ID NO: 12, VL SEQ ID NO: 17 (antibody, V domains shown)
VH: EVQLVESGGGLVQPGGSLRLSCAASGFTFKTYAMNWVRQAPGQGLEWVARIRSKSRNYATYYADSVKDRFTISRDDSKNQFYLQMNNLRTEDTAVYYCVVGGSGFDYWGQGTTLTVSS
VL: DVVMTQTPLSLPVSLGDQASISCRSSQSIVHSNGNTYLEWYLQKPGQSPQLLIYKVSNRFSGVPDRFSGSGSGTDFTLTISSVEAEDLGVYYCFQGSHVPWTFGGGTKLEIK
modifications: Heavy chain variable region; Light chain variable region
- suppression of rHSP90α-induced spheroid formation of PANC-1 cells [1]: most outstanding efficacy
- cytotoxicity in ARPE-19 cells [2]: did not cause any obvious cytotoxicity; also recorded: not cytotoxic
- invasive activities of pancreatic adenocarcinoma and colorectal cancer cell lines [3]: potently suppresses
- water solubility [4]: quite water-soluble
- solubility in PBS ([4]; PBS): > 10000 µg/mL
- mice still surviving on Day-450 ([5]; 5 mg/kg IV, 10-dose schedule from 6 months of age): 7 of 9
- median survival time ([5]; 5 mg/kg IV, 10-dose schedule, Kaplan-Meier, end point Day-450): > 450 days
- liver desmoplasia ([5]; Masson trichrome staining): significant improvement
- elevation of serum HSP90α levels ([5]; after vs. before treatments): effectively abolished
- pancreatic desmoplasia ([5]; mice still surviving on Day-450): drastically recovered
- tumor nodules on livers ([5]; one mouse per group): fewer nodules than IgG-treated mouse
- spheroid-forming activities of pancreatic adenocarcinoma and colorectal cancer cell lines [6]: potently suppresses
